According to publication PMC9171630 (Proceedings of the National Academy of Sciences of the …, 2022):
Substitutions are numbered along the chain they refer to. In names and notes the source's numbering stands.

B1: S431A/T432A KaiC mutant (KaiC-AA) (enzyme)
chain: MTSAEMTSPNNNSEHQAIAKMRTMIEGFDDISHGGLPIGRSTLVSGTSGTGKTLFSIQFLYNGIIEFDEPGVFVTFEETPQDIIKNARSFGWDLAKLVDEGKLFILDASPDPEGQEVVGGFDLSALIERINYAIQKYRARRVSIDSVTSVFQQYDASSVVRRELFRLVARLKQIGATTVMTTERIEEYGPIARYGVEEFVSDNVVILRNVLEGERRRRTLEILKLRGTSHMKGEYPFTITDHGINIFPLGAMRLTQRSSNVRVSSGVVRLDEMCGGGFFKDSIILATGATGTGKTLLVSRFVENACANKERAILFAYEESRAQLLRNAYSWGMDFEEMERQNLLKIVCAYPESAGLEDHLQIIKSEINDFKPARIAIDSLSALARGVSNNAFRQFVIGVTGYAKQEEITGLFTNTSDQFMGAHSITDSHIAAITDTIILLQYVEIRGEMSRAINVFKMRGSWHDKAIREFMISDKGPDIKDSFRNFERIISGSPTRITVDEKSELSRIVRGVQEKGPES
B2: KaiB (natural protein)
chain: MSPRKTYILKLYVAGNTPNSVRALKTLKNILEVEFQGVYALKVIDVLKNPQLAEEDKILATPTLAKVLPLPVRRIIGDLSDREKVLIGLDLLYGELQDSDDF
B3: KaiA (natural protein)
chain: MLSQIAICIWVESTAILQDCQRALSADRYQLQVCESGEMLLEYAQTHRDQIDCLILVAANPSFRAVVQQLCFEGVVVPAIVVGDRDSEDPDEPAKEQLYHSAELHLGIHQLEQLPYQVDAALAEFLRLAPVETMADHIMLMGANHDPELSSQQRDLAQRLQERLGYLGVYYKRDPDRFLRNLPAYESQKLHQAMQTSYREIVLSYFSPNSNLNQSIDNFVNMAFFADVPVTKVVEIHMELMDEFAKKLRVEGRSEDILLDYRLTLIDVIAHLCEMYRRSIPRET

Assays:
crystal structure = target: the molecule itself; experiment: crystal structure
KaiA = target: B3; experiment: SEC-MALS
KaiC^E357Q-AA = target: T1, KaiC^E357Q-AA (Synechococcus elongatus PCC 7942, UniProt Q79PF4 1-519, E357Q | S431A | T432A); experiment: native gel or EMSA
T1 sequence: B1 chain with E357Q

[1] = target: T2, KaiB–KaiC-ST complex (preformed for 48 h) ( | Synechococcus elongatus …, UniProt Q79PF5;Q79PF4); experiment: SEC-MALS
T2 sequence 1: B2 chain
T2 sequence 2: B1 chain with A431S, A432T

[2] = target: T3, KaiB–KaiC^Δ505-ST complex (preformed) ( | Synechococcus elongatus …, UniProt Q79PF5;Q79PF4); experiment: SEC-MALS
T3 sequence 1: B2 chain
T3 sequence 2: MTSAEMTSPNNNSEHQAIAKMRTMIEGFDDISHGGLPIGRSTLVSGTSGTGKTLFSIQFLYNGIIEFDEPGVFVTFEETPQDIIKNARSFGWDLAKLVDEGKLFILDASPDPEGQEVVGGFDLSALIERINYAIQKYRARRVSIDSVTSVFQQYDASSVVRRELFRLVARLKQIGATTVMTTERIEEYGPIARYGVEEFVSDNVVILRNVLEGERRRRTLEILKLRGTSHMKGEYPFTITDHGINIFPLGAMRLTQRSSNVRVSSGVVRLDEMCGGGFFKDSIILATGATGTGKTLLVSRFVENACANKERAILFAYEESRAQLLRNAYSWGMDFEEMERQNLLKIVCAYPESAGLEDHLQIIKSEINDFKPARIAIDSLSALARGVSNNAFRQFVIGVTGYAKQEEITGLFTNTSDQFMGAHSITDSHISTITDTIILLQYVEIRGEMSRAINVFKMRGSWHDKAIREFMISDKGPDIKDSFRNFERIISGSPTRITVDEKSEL

Question: B1 was tested. Which “stoichiometry N” value (crystal structure) did it give?
Answer: Its value is 6.

Question: What does the source list for B2?
Answer: binding result (KaiA): binds; binding result (KaiC^E357Q-AA): binds

Question: Does B3 bind [1]?
Answer: Result: binds

Question: Does B3 bind [2]?
Answer: Result: binds
